Here are results for 2 substances from article PMC10679481.

The target of assay [1] is PKA-C-eGFP (UniProt P17612). The assay can be described thus: co-IP; nanobead-based sc-SiMPull: single HEK293T cells trapped in microwells and lysed in situ, anti-GFP-coated magnetic nanobeads capture PKA-C-eGFP, mCherry seen directly by confocal microscopy; control conditions (no cAMP); room temperature.
Assay [2] deals with PKA-C-eGFP (UniProt P17612). In words: co-IP; nanobead-based sc-SiMPull: single HEK293T cells coexpressing PKA-C-eGFP and PKA-R-HA lysed in situ in microwells, anti-GFP-coated nanobeads, PKA-R-HA visualised by immunostaining with anti-HA and fluorophore-conjugated 2nd antibody.

The substance “PKA-R-mCherry (from UniProt P10644 1-381) (natural protein)” had a percent of GFP and mCherry signals colocalized in assay [1] of 70%. For the substance “PKA-R-HA (from UniProt P10644 1-381) (natural protein)”, the percent of GFP spots colocalized with the anti-HA (Alexa 561) spots in assay [2] was found to be 60%.
